Patent US20240010735A1 (EISAI R AND D MANAGEMENT, published 2024)

Experiments:
Assay in all cases: ELISA: SEAP-His proteins (1 nM) captured on anti-6-His antibody, antibody B 10 µg/mL with human IgG 100 µg/mL, HRP anti-human IgG, OD450 as % of human EphA4-SEAP-His
[1] = biological target: T1, human EphA1 extracellular region-SEAP-His protein (human, UniProt P21709 26-547)
T1 construct: extracellular domain; also called Eph receptor extracellular region-SEAP-His protein; not shown: secretory alkaline phosphatase (SEAP); histidine tag
T1 sequence (looked up): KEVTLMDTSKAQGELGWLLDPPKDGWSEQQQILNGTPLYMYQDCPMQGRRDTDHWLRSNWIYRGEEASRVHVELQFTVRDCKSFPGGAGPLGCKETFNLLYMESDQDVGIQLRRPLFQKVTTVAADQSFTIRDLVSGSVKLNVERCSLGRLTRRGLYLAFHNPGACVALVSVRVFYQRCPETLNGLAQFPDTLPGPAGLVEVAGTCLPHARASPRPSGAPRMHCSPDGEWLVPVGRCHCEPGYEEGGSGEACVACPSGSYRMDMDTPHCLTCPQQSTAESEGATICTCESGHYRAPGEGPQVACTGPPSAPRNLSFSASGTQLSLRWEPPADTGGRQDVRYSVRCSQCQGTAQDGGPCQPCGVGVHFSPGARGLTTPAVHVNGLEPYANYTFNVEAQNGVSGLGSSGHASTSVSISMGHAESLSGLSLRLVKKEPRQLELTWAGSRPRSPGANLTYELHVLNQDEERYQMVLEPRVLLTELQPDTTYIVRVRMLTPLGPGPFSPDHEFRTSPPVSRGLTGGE

[2] = biological target: T2, human EphA7 extracellular region-SEAP-His protein (human, UniProt Q15375 28-555)
T2 construct: extracellular domain; also called Eph receptor extracellular region-SEAP-His protein; not shown: secretory alkaline phosphatase (SEAP); histidine tag
T2 sequence (looked up): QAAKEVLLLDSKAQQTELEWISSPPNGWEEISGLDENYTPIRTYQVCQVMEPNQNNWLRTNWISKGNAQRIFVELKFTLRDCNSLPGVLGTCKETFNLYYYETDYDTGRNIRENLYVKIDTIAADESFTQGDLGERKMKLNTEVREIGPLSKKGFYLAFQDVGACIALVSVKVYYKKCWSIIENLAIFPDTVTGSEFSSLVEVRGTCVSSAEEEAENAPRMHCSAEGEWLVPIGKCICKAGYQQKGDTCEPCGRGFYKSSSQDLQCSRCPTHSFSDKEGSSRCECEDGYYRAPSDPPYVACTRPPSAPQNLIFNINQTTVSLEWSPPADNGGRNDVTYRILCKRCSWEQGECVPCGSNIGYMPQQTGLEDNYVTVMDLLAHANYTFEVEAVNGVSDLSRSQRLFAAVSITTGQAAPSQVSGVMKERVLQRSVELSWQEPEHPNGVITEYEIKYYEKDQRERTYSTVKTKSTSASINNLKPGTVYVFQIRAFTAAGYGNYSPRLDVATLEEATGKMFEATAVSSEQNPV

[3] = biological target: T3, human EphB3 extracellular region-SEAP-His protein (human, UniProt P54753 34-559)
T3 construct: extracellular domain; also called Eph receptor extracellular region-SEAP-His protein; not shown: secretory alkaline phosphatase (SEAP); histidine tag
T3 sequence (looked up): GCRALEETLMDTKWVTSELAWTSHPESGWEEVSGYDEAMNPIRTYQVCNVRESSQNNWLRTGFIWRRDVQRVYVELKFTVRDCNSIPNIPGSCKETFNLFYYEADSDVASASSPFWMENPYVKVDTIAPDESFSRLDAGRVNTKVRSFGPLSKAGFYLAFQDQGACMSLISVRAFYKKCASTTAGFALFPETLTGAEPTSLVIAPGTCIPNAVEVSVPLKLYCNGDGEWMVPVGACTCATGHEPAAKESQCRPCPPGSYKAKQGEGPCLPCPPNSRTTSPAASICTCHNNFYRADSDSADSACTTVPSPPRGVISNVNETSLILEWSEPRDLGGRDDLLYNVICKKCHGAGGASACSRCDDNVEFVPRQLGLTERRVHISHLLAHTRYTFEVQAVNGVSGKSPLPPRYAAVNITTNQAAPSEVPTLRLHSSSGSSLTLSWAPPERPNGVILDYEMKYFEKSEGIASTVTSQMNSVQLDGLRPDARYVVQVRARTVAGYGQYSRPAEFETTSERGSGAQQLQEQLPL

[4] = biological target: T4, human EphB6 extracellular region-SEAP-His protein (human, UniProt O15197 32-594)
T4 construct: extracellular domain; also called Eph receptor extracellular region-SEAP-His protein; not shown: secretory alkaline phosphatase (SEAP); histidine tag
T4 sequence (looked up): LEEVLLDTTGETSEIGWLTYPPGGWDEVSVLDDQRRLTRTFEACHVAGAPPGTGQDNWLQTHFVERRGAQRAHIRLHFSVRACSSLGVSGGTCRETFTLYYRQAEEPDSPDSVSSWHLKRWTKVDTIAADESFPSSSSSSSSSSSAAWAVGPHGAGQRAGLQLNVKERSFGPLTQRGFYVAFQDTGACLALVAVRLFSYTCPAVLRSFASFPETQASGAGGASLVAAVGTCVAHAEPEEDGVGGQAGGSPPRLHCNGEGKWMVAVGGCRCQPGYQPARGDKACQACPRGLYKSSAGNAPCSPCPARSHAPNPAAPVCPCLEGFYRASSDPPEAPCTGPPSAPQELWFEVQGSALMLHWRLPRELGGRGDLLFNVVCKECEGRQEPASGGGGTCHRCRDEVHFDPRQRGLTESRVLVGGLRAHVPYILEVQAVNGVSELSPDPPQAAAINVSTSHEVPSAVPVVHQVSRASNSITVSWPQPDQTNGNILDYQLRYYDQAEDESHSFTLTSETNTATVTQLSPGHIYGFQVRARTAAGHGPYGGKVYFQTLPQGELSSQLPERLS

Measured: binding result

B1: humanized anti-EphA4 monoclonal antibody (antibody B) (antibody, human IgG2, V domains shown)
VH: QVQLVESGGGVVQPGRSLRLSCAVSGFSLTRFGVHWVRQAPGKGLEWVAVIWRGGSTDYNAAFMSRLTISKDNSKNTVYLQMNSLRAEDTAVYYCAKESLFGVYYDYGYYSMDYWGQGTTVTVSS
VL: DIQMTQSPSSLSASVGDRVTITCRASQEISGYLSWLQQKPGKAPKRLIYAASTLDSGVPSRFSGSRSGTEYTLTISSLQPEDFATYYCLQYASYPLTFGGGTKVEIKR
notes: expressed in Expi293F cells; also called humanized antibody of antibody A; HK2-42 / L1-8
no binding (tested: 10 µg/mL): all assays above
